In US20230235054A1 (BIOATLA, published 2023):

T1: human Nectin-4-mFc (human, UniProt Q96NY8 32-349)
T1 construct: extracellular domain; Detection reagent of the bridging ELISA; also called recombinant human Nectin-4 ECD; not shown: mFc (mouse Fc)
T1 sequence (looked up): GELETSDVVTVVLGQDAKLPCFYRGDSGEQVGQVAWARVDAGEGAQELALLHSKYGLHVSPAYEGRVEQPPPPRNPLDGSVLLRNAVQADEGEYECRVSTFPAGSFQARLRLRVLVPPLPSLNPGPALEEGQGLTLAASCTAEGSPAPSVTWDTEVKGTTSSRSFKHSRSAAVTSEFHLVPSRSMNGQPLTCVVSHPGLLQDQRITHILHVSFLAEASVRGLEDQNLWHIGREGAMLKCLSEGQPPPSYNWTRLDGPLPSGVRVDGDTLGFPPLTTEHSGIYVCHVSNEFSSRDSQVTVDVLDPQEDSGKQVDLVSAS


What was measured:
[1] = target: T2, CD3 epsilon/delta heterodimer protein (human, UniProt P07766 23-126; P04234 22-105); test: bridging ELISA, human CD3 coated, bispecific titrated, detection with human Nectin-4-mFc and anti-mouse IgG HRP, physiological pH (pH 7.4 in the protocol); the signal needs both arms
T2 construct: Capture antigen of the bridging ELISA; also called human CD3; recombinant human CD3 antigen
T2 sequence (P07766 23-126, stated change not applied, chain 1 of 2): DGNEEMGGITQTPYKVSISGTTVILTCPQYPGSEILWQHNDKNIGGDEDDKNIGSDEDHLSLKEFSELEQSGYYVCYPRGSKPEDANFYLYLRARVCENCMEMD
T2 sequence (P04234 22-105, stated change not applied, chain 2 of 2): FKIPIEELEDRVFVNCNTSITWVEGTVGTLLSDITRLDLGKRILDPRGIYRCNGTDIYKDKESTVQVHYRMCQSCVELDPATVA
Description: (§1) 1) Coat ELISA plates with 100 μL of 0.5 μg/mL recombinant human CD3 antigen in carbonate-bicarbonate coating buffer. 2) Cover plates with sealing film and incubate overnight at 4° C. 3) Decant plates and tap out residual liquid on a stack of paper towels. 4) Wash wells twice by dispensing 200 μL of pH 6.0 or pH 7.4 ELISA incubation buffer to the wells and completely aspirate the contents. 5) Add 200 μL of pH 6.0 or pH 7.4 ELISA incubation buffer to the wells. Cover with sealing film and place the plate onto a plate shaker set to 50 rpm for 60 minutes at room temperature. 6) Decant plates and tap out residual liquid on a stack of paper towels. 7) Serially dilute test articles in 3-fold dilutions starting at 3000 ng/mL in pH 6.0 or pH 7.4 ELISA incubation buffer. 8) Add 100 μL/well of diluted test articles to the plates 9) Cover with sealing film and place the plates onto a plate shaker set to 50 rpm for 60 minutes at room temperature. 10) Decant plates and tap out residual liquid on a stack of paper towels. 11) Wash wells three times by dispensing 200 μL of pH 6.0 or pH 7.4 ELISA wash buffer to the wells and completely aspirate the contents. 12) Dilute the HRP secondary antibody at 1:2500 in pH 6.0 or pH 7.4 ELISA incubation buffer. […] Read plates at 450 nm using PerkinElmer, EnSpire 2300 Multilabel Reader.

[2] = target: T1, human Nectin-4-mFc; test: bridging ELISA, human CD3 coated, detection with human Nectin-4-mFc and anti-mouse IgG HRP, tumor pH (pH 6.0 in the protocol)
[3] = target: T2, CD3 epsilon/delta heterodimer protein; test: bridging ELISA, human CD3 coated, bispecific titrated, detection with human Nectin-4-mFc and anti-mouse IgG HRP, tumor pH (pH 6.0 in the protocol); the signal needs both arms
Description: as §1

Row | EC50 (read off the curve) [1] [µg/mL] | binding result [2] | EC50 (read off the curve) [3] [µg/mL] | Binder
1 | ~0.03 | binds | ~0.05 | WT Nectin4 × WT CD3 (bispecific antibody, elsewhere it is called a light chain variable region that also carries six anti-CD3 CDRs; also called BA-150-19-01-01-BF1; benchmark) VH: EVQLVESGGGLVQPGGSLRLSCAASGFTFSSYNMNWVRQAPGKGLEWVSYISSSSSTIYYADSVKGRFTISRDNAKNSLSLQMNSLRDEDTAVYYCARAYYYGMDVWGQGTTVTVSS light: DIQMTQSPSSVSASVGDRVTITCRASQGISGWLAWYQQKPGKAPKFLIYAASTLQSGVPSRFSGSGSGTDFTLTISSLQPEDFATYYCQQAQSFPPTFGGGTKVEIKRTVAAPSVFIFPPSDEQLKSGTASVVCLLNNFYPREAKVQWKVDNALQSGNSQESVTEQDSKDSTYSLSSTLTLSKADYEKHKVYACEVTHQGLSSPVTKSFNRGECSRSGGGGEVQLVESGGGLVQPGGSLRLSCAASGFTFNTYAMNWVRQAPGKGLEWVARIRSKYNNYATYYADSVKDRFTISRDDSKNSLYLQMNSLKTEDTAVYYCVRHGNFGNSYVSWFAYWGQGTLVTVSSGGSGGSGGSGGSGGQAVVTQEPSLTVSPGGTVTLTCRSSTGAVTTSNYANWVQQKPGQAPRGLIGGTNKRAPWTPARFSGSLLGGKAALTITGAQAEDEADYYCALWYSNLWVFGGGTKLTVLSR
2 | ~0.2 | binds | ~0.03 | CAB Nectin4 × CAB CD3 (bispecific antibody, elsewhere it is called a light chain variable region that also carries six anti-CD3 CDRs; also called BA-150-30-03-12-BF19) VH: EVQLVESGGGLVQPGGSLRLSCAASGFTFSSYNMNWVRQAPGKGLEWVSYISSSSSTIYYADSVKGRFTISRDNAKNSLSLQMNSLRDEDTAVYYCARAYYYGMDKWGQGTTVTVSS light: DIQMTQSPSSVSASVGDRVTITCRASQGISGWEAWYQQKPGKAPKFLIYAASTLQSGVPSRFSGSGSGTDFTLTISSLQPEDFATYYCQQAQSFPPTFGGGTKVEIKRTVAAPSVFIFPPSDEQLKSGTASVVCLLNNFYPREAKVQWKVDNALQSGNSQESVTEQDSKDSTYSLSSTLTLSKADYEKHKVYACEVTHQGLSSPVTKSFNRGECSRSGGGGEVQLVESGGGLVQPGGSLRLSCAASGFTFNTYAMNWVRQAPGKGLEWVARIRSKYNNYATYYADSVKDRFTISRDDSKNSLYLQMNSLKTEDTAVYYCVRHGNFPNSKVSWFQYWGQGTLVTVSSGGSGGSGGSGGSGGQAVVTQEPSLTVSPGGTVTLTCRSSTGAVTTSNYDNWVQQKPGQAPRGLIGGTNKRAPWTPARFSGSLLGGKAALTITGAQAEDEADYYCALWYSNLWVFGGGTKLTVLSR
